Data set [1] concerns the target Rad50 E1235Q (MREQ complex);Mre11 (Saccharomyces cerevisiae;Saccharomyces …, UniProt P12753;P32829 1-1312;1-692, E1235Q|). The data set is described as follows: cryo-EM 3.2 A.
For data set [2], the target named is T1, S. cerevisiae Rad50-E1235Q (S. cerevisiae, UniProt P12753, E1235Q).
T1 sequence: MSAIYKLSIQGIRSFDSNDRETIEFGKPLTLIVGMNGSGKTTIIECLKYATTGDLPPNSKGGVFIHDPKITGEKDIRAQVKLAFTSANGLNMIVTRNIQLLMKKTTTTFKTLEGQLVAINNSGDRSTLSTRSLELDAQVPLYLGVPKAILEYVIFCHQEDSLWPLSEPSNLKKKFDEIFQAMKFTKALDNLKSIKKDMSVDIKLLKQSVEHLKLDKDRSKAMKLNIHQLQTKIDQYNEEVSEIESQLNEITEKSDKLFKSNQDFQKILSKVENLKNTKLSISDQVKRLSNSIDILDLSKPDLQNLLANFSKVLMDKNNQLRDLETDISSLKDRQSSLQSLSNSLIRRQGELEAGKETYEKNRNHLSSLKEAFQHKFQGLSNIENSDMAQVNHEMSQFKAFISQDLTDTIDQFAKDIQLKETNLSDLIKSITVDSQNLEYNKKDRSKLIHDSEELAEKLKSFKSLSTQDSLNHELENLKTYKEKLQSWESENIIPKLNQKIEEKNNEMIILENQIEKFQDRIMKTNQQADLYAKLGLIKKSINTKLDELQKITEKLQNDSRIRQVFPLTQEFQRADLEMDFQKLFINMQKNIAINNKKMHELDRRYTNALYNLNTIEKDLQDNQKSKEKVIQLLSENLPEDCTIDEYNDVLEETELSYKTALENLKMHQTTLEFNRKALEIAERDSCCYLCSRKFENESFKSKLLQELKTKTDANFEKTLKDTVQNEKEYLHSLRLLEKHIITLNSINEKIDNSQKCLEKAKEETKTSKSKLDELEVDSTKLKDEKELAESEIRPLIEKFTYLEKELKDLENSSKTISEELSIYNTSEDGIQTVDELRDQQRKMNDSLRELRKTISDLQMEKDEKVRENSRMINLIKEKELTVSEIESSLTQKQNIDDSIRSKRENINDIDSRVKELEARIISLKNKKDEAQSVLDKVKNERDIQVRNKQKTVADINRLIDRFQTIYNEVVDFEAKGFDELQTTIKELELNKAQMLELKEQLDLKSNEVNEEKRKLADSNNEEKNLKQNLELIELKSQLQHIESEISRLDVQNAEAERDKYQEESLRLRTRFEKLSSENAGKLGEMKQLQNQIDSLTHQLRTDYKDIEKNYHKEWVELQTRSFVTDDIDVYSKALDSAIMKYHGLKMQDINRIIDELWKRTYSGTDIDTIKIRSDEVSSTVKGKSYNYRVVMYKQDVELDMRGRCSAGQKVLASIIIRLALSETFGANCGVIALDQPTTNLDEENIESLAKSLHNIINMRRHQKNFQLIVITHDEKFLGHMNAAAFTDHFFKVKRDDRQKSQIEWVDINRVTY
Nature of the data set: cryo-EM structure.

B1: 83-mer dsDNA (cryo-EM) (dsDNA)
DNA 1: TTGATAAGAGGTCATTTTTGCGGATGGCTTAGAGCTTAATTGCTGAATCTGGTGCTGTAGCTCAACATGTTTTAAATATGCAA
DNA 2: TTGCATATTTAAAACATGTTGAGCTACAGCACCAGATTCAGCAATTAAGCTCTAAGCCATCCGCAAAAATGACCTCTTATCAA
With B1, the binding result in data set [1] is “binds”.

B2: S. cerevisiae Mre11 with a C-terminal 1xFLAG tag (natural protein)
chain: MDYPDPDTIRILITTDNHVGYNENDPITGDDSWKTFHEVMMLAKNNNVDMVVQSGDLFHVNKPSKKSLYQVLKTLRLCCMGDKPCELELLSDPSQVFHYDEFTNVNYEDPNFNISIPVFGISGNHDDASGDSLLCPMDILHATGLINHFGKVIESDKIKVVPLLFQKGSTKLALYGLAAVRDERLFRTFKDGGVTFEVPTMREGEWFNLMCVHQNHTGHTNTAFLPEQFLPDFLDMVIWGHEHECIPNLVHNPIKNFDVLQPGSSVATSLCEAEAQPKYVFILDIKYGEAPKMTPIPLETIRTFKMKSISLQDVPHLRPHDKDATSKYLIEQVEEMIRDANEETKQKLADDGEGDMVAELPKPLIRLRVDYSAPSNTQSPIDYQVENPRRFSNRFVGRVANGNNVVQFYKKRSPVTRSKKSGINGTSISDRDVEKLFSESGGELEVQTLVNDLLNKMQLSLLPEVGLNEAVKKFVDKDEKTALKEFISHEISNEVGILSTNEEFLRTDDAEEMKALIKQVKRANSVRPTPPKENDETNFAFNGNGLDSFRSSNREVRTGSPDITQSHVDNESRITHISQAESSKPTSKPKRVRTATKKKIPAFSDSTVISDAENELGDNNDAQDDVDIDENDIIMVSTDEEDASYGLLNGRKTKTKTRPAASTKTASRRGKGRASRTPKTDILGSLLAKKRK
Turning to B2, in data set [2], the binding result is “binds”.
